The numbers were not newly measured in publication PMC7708053, which cites them from elsewhere.

The target in the data set is T1, hnRNP L (cited Kd) (UniProt P14866).
T1 sequence: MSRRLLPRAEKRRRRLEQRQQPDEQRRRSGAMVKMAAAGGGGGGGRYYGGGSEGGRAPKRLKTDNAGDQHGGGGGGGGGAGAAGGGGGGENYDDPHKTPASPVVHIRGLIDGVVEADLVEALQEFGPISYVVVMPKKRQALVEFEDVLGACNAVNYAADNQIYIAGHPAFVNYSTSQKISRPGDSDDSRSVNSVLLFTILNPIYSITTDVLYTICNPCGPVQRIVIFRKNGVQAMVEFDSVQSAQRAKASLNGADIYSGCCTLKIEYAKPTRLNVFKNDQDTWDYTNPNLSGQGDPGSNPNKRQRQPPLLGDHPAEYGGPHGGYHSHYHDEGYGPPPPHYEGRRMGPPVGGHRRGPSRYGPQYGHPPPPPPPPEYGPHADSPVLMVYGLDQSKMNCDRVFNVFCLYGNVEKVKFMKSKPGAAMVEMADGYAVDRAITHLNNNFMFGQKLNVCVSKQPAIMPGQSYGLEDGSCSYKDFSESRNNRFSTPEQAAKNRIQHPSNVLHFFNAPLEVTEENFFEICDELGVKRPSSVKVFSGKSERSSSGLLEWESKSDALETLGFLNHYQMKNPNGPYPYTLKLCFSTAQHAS
In words: not stated (cited). The conditions noted are these: 50 pmol biotinylated RNA on streptavidin beads with HeLa lysate in RIPA (50 mM Tris-Cl pH 7.4, 150 mM NaCl, 5 mM EDTA, 1% NP-40), washed at 300 mM KCl ….

By Kd is commonly meant the concentration at which binding is half-saturated. Regarding “AUACAUGACACACACACGCA [CA-SELEX#51 20-mer]”, the Kd was 7.2 nM.
